Experimental data as given in patent publication US20230340055A1 (published 2023).

Assays:
[1] = molecular target: T1, IL-2-Rα/β/γ on the murine CTLL-2 T lymphocyte cell line (murine, UniProt P01590 22-268; P16297 27-539; P34902 23-369); test: cell-based or functional assay
T1 sequence (looked up) 1: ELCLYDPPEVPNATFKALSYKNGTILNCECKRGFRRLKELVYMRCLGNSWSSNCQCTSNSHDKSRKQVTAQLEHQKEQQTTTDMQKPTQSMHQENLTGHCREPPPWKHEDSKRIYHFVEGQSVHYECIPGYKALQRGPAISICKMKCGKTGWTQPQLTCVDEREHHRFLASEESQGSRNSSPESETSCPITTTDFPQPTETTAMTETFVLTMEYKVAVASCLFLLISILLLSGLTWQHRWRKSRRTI
T1 sequence (looked up) 2: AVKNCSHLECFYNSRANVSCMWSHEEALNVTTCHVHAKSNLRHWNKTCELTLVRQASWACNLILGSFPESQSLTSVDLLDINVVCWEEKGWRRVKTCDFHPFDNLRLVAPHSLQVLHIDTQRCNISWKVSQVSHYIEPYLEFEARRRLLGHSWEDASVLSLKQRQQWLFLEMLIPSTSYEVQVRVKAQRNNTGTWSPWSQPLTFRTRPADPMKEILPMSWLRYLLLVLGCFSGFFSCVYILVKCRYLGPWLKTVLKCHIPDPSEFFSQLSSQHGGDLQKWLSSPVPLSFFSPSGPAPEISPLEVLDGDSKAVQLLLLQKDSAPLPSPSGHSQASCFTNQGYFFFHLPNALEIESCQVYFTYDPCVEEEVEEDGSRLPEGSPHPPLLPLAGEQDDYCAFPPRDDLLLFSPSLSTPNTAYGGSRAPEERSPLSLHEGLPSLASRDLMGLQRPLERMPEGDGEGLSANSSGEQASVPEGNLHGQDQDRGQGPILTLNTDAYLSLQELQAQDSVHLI
T1 sequence (looked up) 3: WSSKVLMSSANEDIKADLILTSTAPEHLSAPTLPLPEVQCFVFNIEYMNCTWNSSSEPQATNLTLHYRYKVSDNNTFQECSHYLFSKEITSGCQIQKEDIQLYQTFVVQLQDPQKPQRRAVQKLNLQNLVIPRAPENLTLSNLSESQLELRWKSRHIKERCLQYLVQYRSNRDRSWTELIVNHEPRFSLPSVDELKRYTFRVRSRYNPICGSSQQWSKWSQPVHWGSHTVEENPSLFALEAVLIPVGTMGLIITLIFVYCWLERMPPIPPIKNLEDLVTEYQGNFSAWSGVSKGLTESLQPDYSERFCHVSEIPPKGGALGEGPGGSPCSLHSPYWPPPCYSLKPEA

[2] = molecular target: T2, IL-2Rαβγ (trimeric high-affinity IL-2 receptor), human, on cells (human, UniProt P01589 22-272; P14784 27-551; P31785 23-369); test: cell-based or functional assay
T2 sequence (looked up) 1: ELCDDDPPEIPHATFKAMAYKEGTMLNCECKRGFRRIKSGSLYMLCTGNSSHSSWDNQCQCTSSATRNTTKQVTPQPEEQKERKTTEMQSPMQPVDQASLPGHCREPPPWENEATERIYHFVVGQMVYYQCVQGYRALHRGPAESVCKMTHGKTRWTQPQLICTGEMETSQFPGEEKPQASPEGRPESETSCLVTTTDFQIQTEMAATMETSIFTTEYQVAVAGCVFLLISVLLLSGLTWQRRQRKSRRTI
T2 sequence (looked up) 2: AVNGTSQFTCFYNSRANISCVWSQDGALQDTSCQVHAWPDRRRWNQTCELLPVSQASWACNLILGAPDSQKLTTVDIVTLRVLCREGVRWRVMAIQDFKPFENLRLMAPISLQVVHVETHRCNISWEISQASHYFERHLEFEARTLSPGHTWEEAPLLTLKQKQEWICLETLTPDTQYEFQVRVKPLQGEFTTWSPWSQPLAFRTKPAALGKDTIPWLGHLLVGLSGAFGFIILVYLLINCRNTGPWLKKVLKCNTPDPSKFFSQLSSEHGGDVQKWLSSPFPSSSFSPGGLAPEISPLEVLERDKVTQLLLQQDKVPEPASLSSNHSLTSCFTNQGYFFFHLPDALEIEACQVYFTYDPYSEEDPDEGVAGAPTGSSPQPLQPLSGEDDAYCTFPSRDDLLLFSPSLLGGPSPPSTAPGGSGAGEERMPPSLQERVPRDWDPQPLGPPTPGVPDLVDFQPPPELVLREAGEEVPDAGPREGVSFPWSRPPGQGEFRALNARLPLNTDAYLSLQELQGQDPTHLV
T2 sequence (looked up) 3: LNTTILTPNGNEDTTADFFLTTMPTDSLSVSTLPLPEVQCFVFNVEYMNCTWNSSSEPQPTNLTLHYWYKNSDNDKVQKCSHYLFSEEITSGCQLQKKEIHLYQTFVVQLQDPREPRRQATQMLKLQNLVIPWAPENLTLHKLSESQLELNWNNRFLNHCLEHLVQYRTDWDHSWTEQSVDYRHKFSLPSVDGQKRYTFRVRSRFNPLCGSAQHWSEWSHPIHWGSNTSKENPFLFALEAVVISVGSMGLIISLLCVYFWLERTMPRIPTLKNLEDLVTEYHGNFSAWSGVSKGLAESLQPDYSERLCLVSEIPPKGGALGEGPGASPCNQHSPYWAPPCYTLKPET

ratio of Ratio protein 6 to Ratio protein 5a (EC50 CTLL-2 cells / EC50 HH cells) [1]: > 250 | fold lower potency than 1d, pSTAT5, Tregs (human PBMCs) [2]: ~1900 fold
B1: protein 6 (ligand)
chain: APTSSSTKKTQLQLEHLLLDLQMILNGINNYKNPKLTFGNSTKFYMPKKATELKHLQCLEEELKPLEEVLNLAQSKNFHLRPRDLISNINVIVLELKGSETTFMCEYADETATIVEFLNRWITFSQSIISTLT
modifications: glycosylated (same sequence with the N-glycosylation motif FGNST as protein 1f); glycan sites not analysed separately for protein 6
